Non-standard residues stand in square brackets, D forms with d. No end group written: not given here. Arg(Me2a) = CN(C)C(=N)NCCC[C@H](N)C(=O)O
T1: PHD domain of UHRF1 (UHRF1PHD) (structural Zn2+ ions bound; limits are not given, so they follow the usual UHRF1 PHD structural constructs (about 298-366), which include the N-terminal pre-PHD zinc site; the UniProt PHD-type featu)
T1 chain: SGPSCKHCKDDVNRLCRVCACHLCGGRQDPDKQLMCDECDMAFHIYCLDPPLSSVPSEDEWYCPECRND

B1: native H3R2me2a peptide (H3_(1‐15) without diazirine and biotin) (peptide)
peptide: A[Arg(Me2a)]TKQTARKSTGGKA-NH2
notes: Rink amide resin was used for all peptides, so the C-terminus is probably an amide; source: synthetic peptide (Fmoc solid-phase synthesis)
B2: native H3R2 peptide (H3_(1‐15) without diazirine and biotin) (peptide)
peptide: ARTKQTARKSTGGKA-NH2
notes: Rink amide resin was used for all peptides, so the C-terminus is probably an amide; also called native H3_(1‐15) peptide; source: synthetic peptide (Fmoc solid-phase synthesis)

Tests used:
Assay in all cases: ITC; 25 °C, MicroCal PEAQ-ITC; protein in the cell titrated with 19 injections of peptide
Conditions in all cases: both partners purified
RBBP7 (1‐ 425) = target: T2, RBBP7 (1‐ 425) (UniProt Q16576 1-425)
T2 construct: RBBP7 residues 1-425; source: Sf9 (baculovirus), purified (Ni-NTA, Resource Q, Superdex 75)

RBBP4 (1‐ 425) = target: T3, RBBP4 (1‐ 425) (UniProt Q09028 1-425)
T3 construct: RBBP4 residues 1-425; source: Sf9 (baculovirus), purified (Ni-NTA, Resource Q, Superdex 75)

[1] = target: T1, PHD domain of UHRF1 (UHRF1PHD)

T3 sequence (Q09028 whole entry, the tested form may be a part): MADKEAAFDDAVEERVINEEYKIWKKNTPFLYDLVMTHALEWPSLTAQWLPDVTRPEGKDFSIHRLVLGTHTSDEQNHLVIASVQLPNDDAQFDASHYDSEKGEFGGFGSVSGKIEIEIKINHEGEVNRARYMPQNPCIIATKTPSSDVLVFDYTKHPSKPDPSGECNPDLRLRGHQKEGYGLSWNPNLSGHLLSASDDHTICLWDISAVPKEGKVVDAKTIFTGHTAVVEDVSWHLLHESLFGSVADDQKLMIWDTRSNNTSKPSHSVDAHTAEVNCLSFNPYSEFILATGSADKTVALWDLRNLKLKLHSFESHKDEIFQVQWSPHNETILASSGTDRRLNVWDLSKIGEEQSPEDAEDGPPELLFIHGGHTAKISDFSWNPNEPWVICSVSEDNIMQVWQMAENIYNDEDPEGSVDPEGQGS
T2 sequence (Q16576 whole entry, the tested form may be a part): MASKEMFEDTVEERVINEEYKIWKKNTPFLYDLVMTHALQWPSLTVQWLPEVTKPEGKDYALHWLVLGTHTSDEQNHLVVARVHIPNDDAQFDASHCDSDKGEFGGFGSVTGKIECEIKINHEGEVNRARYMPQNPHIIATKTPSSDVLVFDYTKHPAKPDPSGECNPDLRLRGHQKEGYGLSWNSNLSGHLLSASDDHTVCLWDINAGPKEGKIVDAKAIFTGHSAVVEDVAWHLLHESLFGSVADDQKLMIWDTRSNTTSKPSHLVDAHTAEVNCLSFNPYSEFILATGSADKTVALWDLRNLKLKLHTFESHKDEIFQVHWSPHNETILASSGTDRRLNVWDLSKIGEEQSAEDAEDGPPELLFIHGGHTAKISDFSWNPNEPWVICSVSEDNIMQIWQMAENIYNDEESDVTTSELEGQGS

Binder | Kd (RBBP7 (1‐ 425)) [nM] | Kd (RBBP4 (1‐ 425)) [nM] | Kd [1] [nM]
B1 | 15400 | ~1200 | 
B2 |  |  | 2300

— publication PMC11005723, “Development of Complementary Photo‐arginine/lysine to Promote Discovery of Arg/Lys hPTMs Interactomes” (Advanced Science, 2024)
